In patent US20080219971A1 (VACCINEX, published 2008):
Numbering of substitutions follows the chain as printed. Names may count otherwise.

T1: Human CD100 (human, UniProt Q92854 22-734, limits assumed)
T1 construct: also called SEMA4D; Hu CD100
T1 sequence (looked up): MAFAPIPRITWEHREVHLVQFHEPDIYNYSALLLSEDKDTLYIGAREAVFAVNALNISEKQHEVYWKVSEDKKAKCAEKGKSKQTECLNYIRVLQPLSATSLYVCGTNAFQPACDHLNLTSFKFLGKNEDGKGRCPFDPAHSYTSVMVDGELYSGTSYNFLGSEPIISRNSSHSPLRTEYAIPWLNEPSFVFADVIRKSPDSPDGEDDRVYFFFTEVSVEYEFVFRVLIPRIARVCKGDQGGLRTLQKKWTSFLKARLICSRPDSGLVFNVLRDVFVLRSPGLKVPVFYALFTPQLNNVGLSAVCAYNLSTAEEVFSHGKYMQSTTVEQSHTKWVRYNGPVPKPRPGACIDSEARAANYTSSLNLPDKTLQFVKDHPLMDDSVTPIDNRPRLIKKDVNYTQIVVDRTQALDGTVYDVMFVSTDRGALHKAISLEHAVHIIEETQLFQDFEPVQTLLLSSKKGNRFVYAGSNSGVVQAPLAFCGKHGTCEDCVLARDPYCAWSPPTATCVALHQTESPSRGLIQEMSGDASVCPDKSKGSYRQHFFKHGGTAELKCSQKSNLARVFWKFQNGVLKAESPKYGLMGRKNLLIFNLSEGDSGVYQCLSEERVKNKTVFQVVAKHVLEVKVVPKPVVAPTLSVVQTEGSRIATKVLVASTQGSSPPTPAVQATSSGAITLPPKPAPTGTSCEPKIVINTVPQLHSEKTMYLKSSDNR

T2: human CD100-Fc (human, UniProt Q92854 22-734, limits assumed)
T2 construct: also called CD100-Fc antigen
T2 sequence (looked up): T1 sequence (looked up)

B1: MAb 1656 (antibody, human IgG1, V domains shown)
VH: QVQLVQSGAEVKKPGSSVKVSCKASGYTFTDYYMDWVRQAPGQGLEWMGRVNPYHGGATYNQKFKGRVTITADKSTSTAYMELSSLRSEDTAVYYCAREENSYDGYYGMDYWGQGTLVTVSS
VL: DIVMTQSPLSLPVSPGEPATINCKSSQSLFNSGNQKNYLAWYLQKPGQPPKLLIYGASTRESGVPDRFSGSGSGTDFTLTISSLQAEDVAVYYCQNDHTYPYTFGQGTKLEIK
notes: Humanized BD16, fully human frameworks, human IgG1; also called H1651/L284
B2: MAb 2284 (antibody, V domains shown)
VH: B1 VH with K23T, Y60F
VL: B1 VL
notes: Double mutant of H1651 with L284; also called H1651 K23T Y60F with L284
B3: MAb 2220 (antibody, V domains shown)
VH: B1 VH with Y60F
VL: B1 VL
notes: H1651 mutant VH combined with L284; also called H1651 Y60F with L284
B4: MAb 2282 (antibody, V domains shown)
VH: B1 VH with K23T, G57Y
VL: B1 VL
notes: Double mutant of H1651 with L284; also called H1651 K23T G57Y with L284
B5: MAb 2277 (antibody, V domains shown)
VH: B1 VH with Q6A, T59F
VL: B1 VL
notes: Double mutant of H1651 with L284; also called H1651 Q6A T59F with L284
B6: MAb 2207 (antibody, V domains shown)
VH: B1 VH with G57Y
VL: B1 VL
notes: H1651 mutant VH combined with L284; also called H1651 G57Y with L284
B7: MAb 2117 (antibody, V domains shown)
VH: B1 VH with D104T
VL: B1 VL
notes: H1651 mutant VH combined with L284; also called H1651 D104T with L284
B8: MAb 2163 (antibody, V domains shown)
VH: B1 VH with D31K
VL: B1 VL
notes: H1651 mutant VH combined with L284; also called H1651 D31K with L284
B9: MAb 2279 (antibody, V domains shown)
VH: B1 VH with Q6A, Y60V
VL: B1 VL
notes: Double mutant of H1651 with L284; also called H1651 Q6A Y60V with L284
B10: MAb 2208 (antibody, V domains shown)
VH: B1 VH with A58G
VL: B1 VL
notes: H1651 mutant VH combined with L284; also called H1651 A58G with L284
B11: MAb 2125 (antibody, V domains shown)
VH: B1 VH with E100D
VL: B1 VL
notes: H1651 mutant VH combined with L284; also called H1651 E100D with L284
B12: MAb 2144 (antibody, V domains shown)
VH: B1 VH with Q6A
VL: B1 VL
notes: H1651 mutant VH combined with L284; also called H1651 Q6A with L284
B13: MAb 2224 (antibody, V domains shown)
VH: B1 VH with Y60P
VL: B1 VL
notes: H1651 mutant VH combined with L284; also called H1651 Y60P with L284
B14: MAb 2278 (antibody, V domains shown)
VH: B1 VH with Q6A, Y60F
VL: B1 VL
notes: Double mutant of H1651 with L284; also called H1651 Q6A Y60F with L284
B15: MAb 2274 (antibody, V domains shown)
VH: B1 VH with Q6A, D31K
VL: B1 VL
notes: Double mutant of H1651 with L284; also called H1651 Q6A D31K with L284
B16: MAb 2285 (antibody, V domains shown)
VH: B1 VH with K23T, Y60V
VL: B1 VL
notes: Double mutant of H1651 with L284; also called H1651 K23T Y60V with L284
B17: MAb 1807 (antibody, human IgG4, V domains shown)
VH: B1 VH with M48I, R67K, V68A, A72V
VL: B1 VL
notes: Humanized BD16, human IgG4; also called H1235/L284
B18: MAb 2219 (antibody, V domains shown)
VH: B1 VH with T59W
VL: B1 VL
notes: H1651 mutant VH combined with L284; also called H1651 T59W with L284
B19: MAb 2280 (antibody, V domains shown)
VH: B1 VH with K23T, D31K
VL: B1 VL
notes: Double mutant of H1651 with L284; also called H1651 K23T D31K with L284
B20: MAb 2202 (antibody, V domains shown)
VH: B1 VH with G57F
VL: B1 VL
notes: H1651 mutant VH combined with L284; also called H1651 G57F with L284
B21: MAb 2276 (antibody, V domains shown)
VH: B1 VH with Q6A, G57Y
VL: B1 VL
notes: Double mutant of H1651 with L284; also called H1651 Q6A G57Y with L284
B22: MAb 2281 (antibody, V domains shown)
VH: B1 VH with K23T, G57F
VL: B1 VL
notes: Double mutant of H1651 with L284; also called H1651 K23T G57F with L284
B23: MAb 2139 (antibody, V domains shown)
VH: B1 VH with K23T
VL: B1 VL
notes: H1651 mutant VH combined with L284; also called H1651 K23T with L284
B24: MAb 2225 (antibody, V domains shown)
VH: B1 VH with Y60V
VL: B1 VL
notes: H1651 mutant VH combined with L284; also called H1651 Y60V with L284
B25: MAb 2218 (antibody, V domains shown)
VH: B1 VH with T59V
VL: B1 VL
notes: H1651 mutant VH combined with L284; also called H1651 T59V with L284
B26: MAb 2216 (antibody, V domains shown)
VH: B1 VH with T59F
VL: B1 VL
notes: H1651 mutant VH combined with L284; also called H1651 T59F with L284
B27: MAb 2275 (antibody, V domains shown)
VH: B1 VH with Q6A, G57F
VL: B1 VL
notes: Double mutant of H1651 with L284; also called H1651 Q6A G57F with L284
B28: MAb 2206 (antibody, V domains shown)
VH: B1 VH with G57W
VL: B1 VL
notes: H1651 mutant VH combined with L284; also called H1651 G57W with L284
B29: MAb 2283 (antibody, V domains shown)
VH: B1 VH with K23T, T59F
VL: B1 VL
notes: Double mutant of H1651 with L284; also called H1651 K23T T59F with L284
B30: MAb 301 (antibody, human IgG1, V domains shown)
VH: EVQLQQSGPELVKPGASVKMSCKASGYTFTDYYMDWVKQSHGESFEWIGRVNPYHGGATYNQKFKGKATLTVDKSSRTAYMELNSLTYEDSAVYYCAREENSYDGYYGMDYWGQGTTVTVSS
VL: DIVLTQSPSSLSVSAGEKVTMDCKSSQSLFNSGNQKNYLAWYHQKPGQPPKLLIYGASTRESGVPDRFTGSGSGTDFTLTISSVQAEDLAVYYCQNDHTYPYTFGGGTKLEIK
notes: Chimeric, human IgG1, human kappa constant domain; also called chimeric BD16; H387/L124

Experiments:
Human CD100 [1] = target: T1, Human CD100; assay: ELISA method of Friguet et al.; column head 'Affinity (nM) IC50 ELISA'; antigen not named
Description: Antibody affinity was measured according to the ELISA method described in Friguet et al. (1985) J Immunol Methods 77(2):305-19.

human serum albumin = target: T3, human serum albumin (human, UniProt P02768 25-609); assay: ELISA
T3 construct: Negative control antigen
T3 sequence (P02768 25-609 limits assumed): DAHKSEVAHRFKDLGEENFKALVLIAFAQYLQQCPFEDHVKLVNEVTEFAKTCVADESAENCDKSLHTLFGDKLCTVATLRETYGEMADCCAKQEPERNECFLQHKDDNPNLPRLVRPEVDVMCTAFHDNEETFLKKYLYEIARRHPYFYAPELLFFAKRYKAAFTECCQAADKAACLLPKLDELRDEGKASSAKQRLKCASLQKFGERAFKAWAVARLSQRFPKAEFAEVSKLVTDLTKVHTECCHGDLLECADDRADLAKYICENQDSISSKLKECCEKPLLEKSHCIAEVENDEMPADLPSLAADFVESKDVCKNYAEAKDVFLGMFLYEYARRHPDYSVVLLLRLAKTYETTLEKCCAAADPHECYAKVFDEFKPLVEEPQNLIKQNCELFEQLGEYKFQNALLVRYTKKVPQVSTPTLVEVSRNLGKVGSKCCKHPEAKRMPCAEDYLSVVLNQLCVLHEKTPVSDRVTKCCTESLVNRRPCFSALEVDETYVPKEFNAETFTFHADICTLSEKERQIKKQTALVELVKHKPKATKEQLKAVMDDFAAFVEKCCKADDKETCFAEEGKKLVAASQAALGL

huErb2-Fc [2] = target: T4, huErb2-Fc (human, UniProt P04626 23-652); assay: ELISA
T4 construct: Negative control antigen; also called huErb2-Fc antigen

streptavidin = target: T5, streptavidin (UniProt P22629 37-163, limits assumed); assay: ELISA
T5 construct: Negative control antigen
T5 sequence (P22629 37-163 limits assumed): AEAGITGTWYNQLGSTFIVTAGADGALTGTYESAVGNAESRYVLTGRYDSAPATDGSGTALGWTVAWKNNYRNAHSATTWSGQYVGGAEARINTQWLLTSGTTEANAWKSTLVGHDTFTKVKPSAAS

BSA = target: T6, BSA (UniProt P02769 25-607); assay: ELISA
T6 construct: Negative control antigen
T6 sequence (P02769 25-607 limits assumed): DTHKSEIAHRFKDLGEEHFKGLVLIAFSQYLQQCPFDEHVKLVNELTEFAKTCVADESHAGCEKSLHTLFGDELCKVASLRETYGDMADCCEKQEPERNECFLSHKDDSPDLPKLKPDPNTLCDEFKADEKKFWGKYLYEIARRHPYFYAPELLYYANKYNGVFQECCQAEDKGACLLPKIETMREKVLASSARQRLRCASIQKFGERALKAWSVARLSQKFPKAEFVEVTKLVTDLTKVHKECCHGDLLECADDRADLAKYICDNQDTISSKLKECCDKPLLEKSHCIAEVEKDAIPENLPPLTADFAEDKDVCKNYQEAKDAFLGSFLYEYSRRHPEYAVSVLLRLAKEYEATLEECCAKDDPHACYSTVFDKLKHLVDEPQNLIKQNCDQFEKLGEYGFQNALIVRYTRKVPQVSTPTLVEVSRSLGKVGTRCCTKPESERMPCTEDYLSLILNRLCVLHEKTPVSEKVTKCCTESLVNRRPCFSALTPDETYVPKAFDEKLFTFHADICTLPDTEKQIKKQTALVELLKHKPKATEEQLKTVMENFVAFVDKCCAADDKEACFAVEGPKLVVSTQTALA

Human CD100 [3] = target: T1, Human CD100; assay: affinity testing, method and unit not printed in Example 10 (nM as in Table 3)
Human CD100 [4] = target: T1, Human CD100; assay: affinity testing, method and unit not printed in Example 10 (nM as in Table 3); mutant value, before the parentheses
Human CD100 [5] = target: T1, Human CD100; assay: affinity testing, method and unit not printed in Example 10 (nM as in Table 3); remark: listed apart in the source
huErb2-Fc [6] = target: T4, huErb2-Fc; assay: ELISA on huErb2-Fc antigen (Neg Ctrl)
human CD100-Fc = target: T2, human CD100-Fc; assay: ELISA on CD100-Fc antigen

Row | Binder | Kd (Human CD100 [3]) [nM] | Kd (Human CD100 [4]) [nM] | further results
1 | B1 | – | – | Kd (Human CD100 [1]): 0.12 nM; binding result (human serum albumin): no binding; binding result (huErb2-Fc [2]): no binding; binding result (streptavidin): no binding; binding result (BSA): no binding
2 | B2 | 0.24 | – | –
3 | B3 | – | 0.04 | –
4 | B4 | 0.09 | – | –
5 | B5 | 0.09 | – | –
6 | B6 | – | – | Kd (Human CD100 [5]): 0.06 nM
7 | B7 | – | 0.52 | –
8 | B8 | – | 0.06 | –
9 | B9 | 0.14 | – | –
10 | B10 | – | 0.08 | –
11 | B11 | – | 0.66 | –
12 | B12 | – | 0.43 | –
13 | B13 | – | – | Kd (Human CD100 [5]): 0.07 nM
14 | B14 | 0.11 | – | –
15 | B15 | 0.1 | – | –
16 | B16 | 0.1 | – | –
17 | B17 | – | – | Kd (Human CD100 [1]): 0.12 nM; binding result (human serum albumin): no binding; binding result (huErb2-Fc [2]): no binding; binding result (streptavidin): no binding; binding result (BSA): no binding
18 | B18 | – | – | Kd (Human CD100 [5]): 0.08 nM
19 | B19 | 0.13 | – | –
20 | B20 | – | 0.06 | –
21 | B21 | 0.09 | – | –
22 | B22 | 0.09 | – | –
23 | B23 | – | 0.61 | –
24 | B24 | – | – | Kd (Human CD100 [5]): 0.04 nM
25 | B25 | – | – | Kd (Human CD100 [5]): 0.08 nM
26 | B26 | – | 0.06 | –
27 | B27 | 0.09 | – | –
28 | B28 | – | – | Kd (Human CD100 [5]): 0.09 nM
29 | B29 | 0.13 | – | –
30 | B30 | – | – | binding result (huErb2-Fc [6]): no binding (tested: 500 ng/ml); binding result (human serum albumin): no binding; binding result (streptavidin): no binding; binding result (BSA): no binding; EC50 (read off the curve) (human CD100-Fc): ~0.02 µg/mL
